The text below walks through data of paper PMC7984725 (Biochemistry, 2018).

The experiment has as its target human linker histone H1.0 (human, UniProt P07305 1-194). Kind of experiment: ITC. In general terms: In ITC the heat of successive injections is recorded.

Sequence of human linker histone H1.0 (P07305 whole entry): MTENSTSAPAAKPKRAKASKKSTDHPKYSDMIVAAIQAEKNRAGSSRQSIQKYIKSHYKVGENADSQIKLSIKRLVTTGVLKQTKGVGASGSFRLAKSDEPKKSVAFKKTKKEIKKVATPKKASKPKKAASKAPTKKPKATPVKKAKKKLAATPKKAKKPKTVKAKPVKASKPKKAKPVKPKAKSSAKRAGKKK

B1: prothymosin-α (ProTα) (natural protein, UniProt P06454 1-111, looked up)
chain: MSDAAVDTSSEITTKDLKEKKEVVEEAENGRDAPANGNAENEENGEQEADNEVDEEEEEGGEEEEEEEEGDGEEEDGDEDEEAESATGKRAAEDDEDDDVDTKKQKTDEDD
For the molecule B1, the Kd – broadly, the equilibrium constant for the complex coming apart – was 460 nM and the stoichiometry N (usually the number of molecules, sites or subunits per partner or assembly) is 1.
